The values below come from FireProtDB (doi:10.1016/j.jmb.2006.01.055).

Several values for one entry are separate records, joined by “and”; a condition that tells them apart may be missing. Equal values may be shown once.

The conditions of the series: Equus caballus, pH 5, 15 °C, Abs, CD, Fluorescence, Sodium acetate 0.1 M, reversible: Yes.
Where [1] appears, read: GdnHCl, transition: 3, structure 1AKK.

Sequence of Cytochrome c wild type, P00004 (P00004 whole entry): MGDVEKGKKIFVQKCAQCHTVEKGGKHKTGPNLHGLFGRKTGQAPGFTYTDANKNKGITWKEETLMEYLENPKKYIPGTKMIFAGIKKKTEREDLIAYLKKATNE
Sequence of Cytochrome c H34N, P00004 (P00004 whole entry H34N): as the sequence (P00004 whole entry) above, with H34N counted along it

Cytochrome c wild type, P00004: under “GdnHCl”, the denaturant m value came to 4.39 kcal/mol/M and the unfolding free energy amounted to 9.8 kcal/mol. Moreover, for the setting “GdnHCl, transition: 3”, the denaturant m value was 1.34 kcal/mol/M and 3.05 kcal/mol/M; the “denaturant midpoint (higher = more stable)” value is 1.5 M and 2.55 M.
As to Cytochrome c H34N, P00004, the denaturant m value (GdnHCl, structure 1AKK) came out at 4.8 kcal/mol/M; the denaturant m value under setting [1] was 1.7 kcal/mol/M and 3.08 kcal/mol/M; the denaturant m value (Urea, structure 1AKK) was determined as 2.43 kcal/mol/M. Besides, the unfolding free energy (GdnHCl, structure 1AKK) came out at 10.8 kcal/mol; the unfolding free energy under setting [1] is 3.5 kcal/mol and 7.3 kcal/mol; the unfolding free energy (Urea, structure 1AKK) was found to be 10.5 kcal/mol. Besides, the “denaturant midpoint (higher = more stable)” value was 2.07 M and 2.34 M under setting [1]; 4 M and 4.81 M (Urea, transition: 3, structure 1AKK).
